{
  "source": "the supplement of paper PMC10598134",
  "experiment": "collision cross section of modified peptide (TIMS, N2, iRT-aligned); higher = larger / more extended gas-phase ion",
  "method_in_brief": "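Values are averages of 1–3 technical replicates of the most abundant feature for each charge state. Collision cross section was obtained from the Mason-Schamp equation after 1/K0 calibration with three reference ions and run-wise alignment to the median iRT peptide deviation. Synthetic peptide pools (iRT standard spiked 1:40) were separated on a 120-min nanoflow C18 gradient at 60 °C, analysed on a timsTOF Pro/HT (dda-PASEF, nitrogen, ~2.4 mbar) and identified with MaxQuant.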",
  "key": {"[1]": {"conditions": "charge state: 2, modification: Formyl"}, "[2]": {"conditions": "charge state: 2, modification: Crotonyl"}, "[3]": {"conditions": "charge state: 2, modification: Succinyl"}, "[4]": {"conditions": "charge state: 3, modification: Succinyl"}, "[5]": {"conditions": "charge state: 2, modification: Acetyl (K)"}, "[6]": {"conditions": "charge state: 3, modification: Acetyl (K)"}, "[7]": {"conditions": "charge state: 2, modification: Butyryl"}, "[8]": {"conditions": "charge state: 2, modification: Hydroxyproline"}, "[9]": {"conditions": "charge state: 3, modification: Hydroxyproline"}, "[10]": {"conditions": "charge state: 2, modification: Propionyl"}, "[11]": {"conditions": "charge state: 3, modification: Crotonyl"}, "[12]": {"conditions": "charge state: 2, modification: Malonyl"}, "[13]": {"conditions": "charge state: 2, modification: Glutarylation"}, "[14]": {"conditions": "charge state: 3, modification: Glutarylation"}},
  "note": "± gives the standard deviation.",
  "data": [
    {"sequence": "VLDSGAPIKIPVGPETLGR [_VLDSGAPIK(hydroxyisobutyryl)IPVGPETLGR_]", "values": [
      {"measurement": "collision cross section", "setting": "charge state: 2, modification: hydroxyisobutyryl", "result": "472.45 ± 0.87", "unit": "Å²"},
      {"measurement": "collision cross section", "setting": "charge state: 3, modification: hydroxyisobutyryl", "result": "522.22 ± 1.2", "unit": "Å²"}
    ]},
    {"sequence": "VDIDAPDVSIEGPDAKLK [_VDIDAPDVSIEGPDAK(Formyl)LK_]", "values": [
      {"measurement": "collision cross section", "setting": "[1]", "result": 461.12, "unit": "Å²"}
    ]},
    {"sequence": "LQLEIDQKK [_LQLEIDQK(Crotonyl)K_]", "values": [
      {"measurement": "collision cross section", "setting": "[2]", "result": 366.56, "unit": "Å²"}
    ]},
    {"sequence": "TLDEILQEKK [_TLDEILQEK(Biotin)K_]", "values": [
      {"measurement": "collision cross section", "setting": "charge state: 2, modification: Biotin", "result": 403.31, "unit": "Å²"}
    ]},
    {"sequence": "LLEEEDSKLK [_LLEEEDSK(Formyl)LK_]", "values": [
      {"measurement": "collision cross section", "setting": "[1]", "result": "374.12 ± 0.55", "unit": "Å²"}
    ]},
    {"sequence": "VYSLFLDESR [_VY(Nitro (Y))SLFLDESR_]", "values": [
      {"measurement": "collision cross section", "setting": "charge state: 2, modification: Nitro (Y)", "result": "377.85 ± 0.17", "unit": "Å²"}
    ]},
    {"sequence": "VGLQVVAVKAPGFGDNR [_VGLQVVAVK(Succinyl)APGFGDNR_]", "values": [
      {"measurement": "collision cross section", "setting": "[3]", "result": "449.31 ± 0.96", "unit": "Å²"},
      {"measurement": "collision cross section", "setting": "[4]", "result": "542.29 ± 1.1", "unit": "Å²"}
    ]},
    {"sequence": "ANEKTESSSAQQVAVSR [_ANEK(Acetyl (K))TESSSAQQVAVSR_]", "values": [
      {"measurement": "collision cross section", "setting": "[5]", "result": "433.42 ± 1.8", "unit": "Å²"},
      {"measurement": "collision cross section", "setting": "[6]", "result": "527.9 ± 0.37", "unit": "Å²"}
    ]},
    {"sequence": "DSSPTTNSKLSALQR [_DSSPTTNSK(GlyGly (K))LSALQR_]", "values": [
      {"measurement": "collision cross section", "setting": "charge state: 2, modification: GlyGly (K)", "result": "434.5 ± 1.6", "unit": "Å²"},
      {"measurement": "collision cross section", "setting": "charge state: 3, modification: GlyGly (K)", "result": "501.52 ± 0.79", "unit": "Å²"}
    ]},
    {"sequence": "PASGAGAGAGAGKR [_PASGAGAGAGAGK(Acetyl (K))R_]", "values": [
      {"measurement": "collision cross section", "setting": "[5]", "result": "357.24 ± 1", "unit": "Å²"},
      {"measurement": "collision cross section", "setting": "[6]", "result": "456.58 ± 2.9", "unit": "Å²"}
    ]},
    {"sequence": "LAEEENKAK [_LAEEENK(Butyryl)AK_]", "values": [
      {"measurement": "collision cross section", "setting": "[7]", "result": "353.86 ± 0.84", "unit": "Å²"}
    ]},
    {"sequence": "FPGVGVLPGVPTGAGVK [_FPGVGVLP(Hydroxyproline)GVPTGAGVK_]", "values": [
      {"measurement": "collision cross section", "setting": "[8]", "result": "432.68 ± 8.7", "unit": "Å²"},
      {"measurement": "collision cross section", "setting": "[9]", "result": "504.05 ± 5.9", "unit": "Å²"}
    ]},
    {"sequence": "DLGKFQVATDALK [_DLGK(Propionyl)FQVATDALK_]", "values": [
      {"measurement": "collision cross section", "setting": "[10]", "result": 407.94, "unit": "Å²"}
    ]},
    {"sequence": "GTITVSAQELKDNR [_GTITVSAQELK(Formyl)DNR_]", "values": [
      {"measurement": "collision cross section", "setting": "[1]", "result": "413.69 ± 0.19", "unit": "Å²"},
      {"measurement": "collision cross section", "setting": "charge state: 3, modification: Formyl", "result": "471.67 ± 1.8", "unit": "Å²"}
    ]},
    {"sequence": "GGGFGAHGRGR [_GGGFGAHGR(Methyl (R))GR_]", "values": [
      {"measurement": "collision cross section", "setting": "charge state: 2, modification: Methyl (R)", "result": "351.67 ± 1.1", "unit": "Å²"},
      {"measurement": "collision cross section", "setting": "charge state: 3, modification: Methyl (R)", "result": "421.56 ± 5.3", "unit": "Å²"}
    ]},
    {"sequence": "IHVQSSSDSSDEPAEKR [_IHVQSSSDSSDEPAEK(Crotonyl)R_]", "values": [
      {"measurement": "collision cross section", "setting": "[2]", "result": 451.2, "unit": "Å²"},
      {"measurement": "collision cross section", "setting": "[11]", "result": "506.27 ± 1.7", "unit": "Å²"}
    ]},
    {"sequence": "SLKLNTAEDAK [_SLK(Succinyl)LNTAEDAK_]", "values": [
      {"measurement": "collision cross section", "setting": "[3]", "result": "377.2 ± 0.87", "unit": "Å²"}
    ]},
    {"sequence": "IQTKAGEATVK [_IQTK(Methyl (K))AGEATVK_]", "values": [
      {"measurement": "collision cross section", "setting": "charge state: 2, modification: Methyl (K)", "result": "367.02 ± 0.38", "unit": "Å²"}
    ]},
    {"sequence": "GAEKTEVAEPR [_GAEK(Formyl)TEVAEPR_]", "values": [
      {"measurement": "collision cross section", "setting": "[1]", "result": "371.26 ± 0.89", "unit": "Å²"}
    ]},
    {"sequence": "VMVAPISGSVTTGTK [_VMVAPIS(HexNAc (ST))GSVTTGTK_]", "values": [
      {"measurement": "collision cross section", "setting": "charge state: 2, modification: HexNAc (ST)", "result": "423.51 ± 0.62", "unit": "Å²"}
    ]},
    {"sequence": "IHNAENIQPGEQKYEYK [_IHNAENIQPGEQK(Crotonyl)YEYK_]", "values": [
      {"measurement": "collision cross section", "setting": "[11]", "result": "531.58 ± 2.8", "unit": "Å²"}
    ]},
    {"sequence": "LEEVTGKLQVAR [_LEEVTGK(Succinyl)LQVAR_]", "values": [
      {"measurement": "collision cross section", "setting": "[3]", "result": "394.87 ± 0.77", "unit": "Å²"}
    ]},
    {"sequence": "PSVGSQSNQAGQGKR [_PSVGSQSNQAGQGK(Propionyl)R_]", "values": [
      {"measurement": "collision cross section", "setting": "[10]", "result": "412.6 ± 0.64", "unit": "Å²"},
      {"measurement": "collision cross section", "setting": "charge state: 3, modification: Propionyl", "result": "473.2 ± 1.4", "unit": "Å²"}
    ]},
    {"sequence": "GEVGAGAGPGAQAGPSAKR [_GEVGAGAGPGAQAGPSAK(Butyryl)R_]", "values": [
      {"measurement": "collision cross section", "setting": "[7]", "result": "426.32 ± 1.1", "unit": "Å²"},
      {"measurement": "collision cross section", "setting": "charge state: 3, modification: Butyryl", "result": "483.04 ± 4.4", "unit": "Å²"}
    ]},
    {"sequence": "LQAAYAGDKADDIQK [_LQAAYAGDK(Succinyl)ADDIQK_]", "values": [
      {"measurement": "collision cross section", "setting": "[3]", "result": "436.68 ± 1.4", "unit": "Å²"},
      {"measurement": "collision cross section", "setting": "[4]", "result": "489.74 ± 2.1", "unit": "Å²"}
    ]},
    {"sequence": "SGNLTEDDKHNNAK [_SGNLTEDDK(Malonyl)HNNAK_]", "values": [
      {"measurement": "collision cross section", "setting": "[12]", "result": "417.21 ± 1.6", "unit": "Å²"}
    ]},
    {"sequence": "STGLELETPSLVPVKK [_STGLELETPSLVPVK(Gluratylation)K_]", "values": [
      {"measurement": "collision cross section", "setting": "[13]", "result": "457.67 ± 1.1", "unit": "Å²"},
      {"measurement": "collision cross section", "setting": "[14]", "result": "527.31 ± 1.8", "unit": "Å²"}
    ]},
    {"sequence": "GERGPPGPPGR [_GERGPPGP(Hydroxyproline)PGR_]", "values": [
      {"measurement": "collision cross section", "setting": "[9]", "result": "409.61 ± 0.34", "unit": "Å²"}
    ]},
    {"sequence": "SKHLQEQLNELK [_SK(Gluratylation)HLQEQLNELK_]", "values": [
      {"measurement": "collision cross section", "setting": "[13]", "result": "423.49 ± 0.97", "unit": "Å²"},
      {"measurement": "collision cross section", "setting": "[14]", "result": "496.16 ± 2", "unit": "Å²"}
    ]},
    {"sequence": "LLEEEDSKLK [_LLEEEDSK(Malonyl)LK_]", "values": [
      {"measurement": "collision cross section", "setting": "[12]", "result": "379.46 ± 1.1", "unit": "Å²"}
    ]},
    {"sequence": "SEASSEFAKK [_SEASSEFAK(Propionyl)K_]", "values": [
      {"measurement": "collision cross section", "setting": "[10]", "result": "351.7 ± 3.7", "unit": "Å²"}
    ]},
    {"sequence": "LGPPGNPGPSGSPGPK [_LGPPGNP(Hydroxyproline)GPSGSPGPK_]", "values": [
      {"measurement": "collision cross section", "setting": "[8]", "result": "386.54 ± 0.27", "unit": "Å²"},
      {"measurement": "collision cross section", "setting": "[9]", "result": 431.89, "unit": "Å²"}
    ]},
    {"sequence": "IVSGKDYNVTANSK [_IVSGK(Malonyl)DYNVTANSK_]", "values": [
      {"measurement": "collision cross section", "setting": "[12]", "result": "407.96 ± 0.037", "unit": "Å²"},
      {"measurement": "collision cross section", "setting": "charge state: 3, modification: Malonyl", "result": "465.84 ± 1.8", "unit": "Å²"}
    ]},
    {"sequence": "VFSIISSEKELK [_VFSIISSEK(Dimethyl (K))ELK_]", "values": [
      {"measurement": "collision cross section", "setting": "charge state: 2, modification: Dimethyl (K)", "result": "416.15 ± 1.1", "unit": "Å²"},
      {"measurement": "collision cross section", "setting": "charge state: 3, modification: Dimethyl (K)", "result": "490.22 ± 1.2", "unit": "Å²"}
    ]}
  ]
}
